Target: in vitro translated 35S-labeled ARF-BP1 (1015-4374) (human, UniProt Q7Z6Z7 1015-4374, 35S-labeled (in vitro translation))
Experiment: GST pull-down with 35S-labeled in vitro translated protein

B1: GST-C-ARF, the C terminus of ARF (65-132) (other, UniProt Q8N726 65-132, looked up)
chain: GHDDGQRPSGGAAAAPRRGAQLRRPRHSHPTRARRCPGGLPGHAGGAAPGRGAAGRARCLGPSARGPG
notes: range 65-132; also called CARF-(65-132); not shown: glutathione S-transferase (GST) tag of the pGEX vector
B1: no binding.
